Reference: the supplement of paper PMC9112550, “Optimization of the antimicrobial peptide Bac7 by deep mutational scanning” (BMC Biology, 2022)

tested on: Escherichia coli TOP10; experiment: shrunken log2 fold change of peptide-encoding DNA abundance (4.5 h post-induction vs induction); higher = less antimicrobial activity (less host growth inhibition); conditions: time post-induction: 4.5 h; library: site-saturation at positions 5, 18, 19, 20
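Note: peptides expressed intracellularly from a pBAD plasmid library in pooled LB shake-flask culture, induced with 0.3% L-arabinose, DNA abundance read by NGS, three biological replicates, DESeq2 with apeglm shrinkage.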

Point of comparison: RRIRKRPPRLPRPRPRPAVAPRP, “shrunken log2 fold change” value 0.0118. Against it:
- RRIRVRPPRLPRPRPRPYPCPRP — within 0.2 log units, 3.36e-05
- RRIRKRPPRLPRPRPRPDGKPRP — within 0.2 log units, 0.0268
- RRIRGRPPRLPRPRPRPWCCPRP — within 0.2 log units, 0.0685
- RRIRIRPPRLPRPRPRPRKSPRP — within 0.2 log units, -0.169
- RRIRDRPPRLPRPRPRPCDNPRP — lower, -0.283
- RRIRARPPRLPRPRPRPNLDPRP — within 0.2 log units, -0.152
- RRIRVRPPRLPRPRPRPQFHPRP — within 0.2 log units, -0.186
- RRIRERPPRLPRPRPRPDVNPRP — within 0.2 log units, -0.0793
- RRIRYRPPRLPRPRPRPVTKPRP — lower, -0.543
- RRIRFRPPRLPRPRPRPWQSPRP — within 0.2 log units, 0.146
- RRIRDRPPRLPRPRPRPPAMPRP — higher, 0.87
- RRIRNRPPRLPRPRPRPICNPRP — lower, -0.203
- RRIRCRPPRLPRPRPRPNCYPRP — lower, -0.209
- RRIRWRPPRLPRPRPRPNSRPRP — within 0.2 log units, 0.0524
- RRIRWRPPRLPRPRPRPLYKPRP — lower, -0.849
- RRIRPRPPRLPRPRPRPPQNPRP — higher, 0.361
- RRIRNRPPRLPRPRPRPDLPPRP — lower, -0.221
- RRIRTRPPRLPRPRPRPLKEPRP — higher, 0.825
- RRIRDRPPRLPRPRPRPAMDPRP — higher, 0.335
- RRIRFRPPRLPRPRPRPIMKPRP — lower, -0.679
- RRIRDRPPRLPRPRPRPLQYPRP — lower, -0.373
- RRIRDRPPRLPRPRPRPRVKPRP — within 0.2 log units, 0.103
- RRIRLRPPRLPRPRPRPVVLPRP — within 0.2 log units, -0.0303
- RRIRMRPPRLPRPRPRPQTKPRP — within 0.2 log units, 0.205
- RRIRRRPPRLPRPRPRPPEDPRP — higher, 1.34
- RRIRGRPPRLPRPRPRPATRPRP — higher, 0.94
- RRIRDRPPRLPRPRPRPKNMPRP — lower, -0.482
- RRIRTRPPRLPRPRPRPEVEPRP — within 0.2 log units, 0.0992
- RRIRYRPPRLPRPRPRPMRWPRP — higher, 0.448
- RRIRPRPPRLPRPRPRPEQYPRP — lower, -0.226
- RRIRCRPPRLPRPRPRPYTPPRP — lower, -1.23
- RRIRYRPPRLPRPRPRPHYDPRP — lower, -0.557
- RRIRRRPPRLPRPRPRPYWVPRP — within 0.2 log units, 0.0443
- RRIRQRPPRLPRPRPRPQQIPRP — within 0.2 log units, -0.0822
- RRIRTRPPRLPRPRPRPSGHPRP — within 0.2 log units, -0.17
- RRIRGRPPRLPRPRPRPRSIPRP — higher, 0.238
- RRIRMRPPRLPRPRPRPNPRPRP — higher, 0.718
- RRIRKRPPRLPRPRPRPWCCPRP — within 0.2 log units, -0.187
- RRIRCRPPRLPRPRPRPAFRPRP — higher, 0.25
- RRIRIRPPRLPRPRPRPGRQPRP — within 0.2 log units, 0.172
- RRIRSRPPRLPRPRPRPNWQPRP — within 0.2 log units, 0.0694
- RRIRIRPPRLPRPRPRPDCIPRP — within 0.2 log units, 0.0653
- RRIRLRPPRLPRPRPRPHSIPRP — lower, -0.191
- RRIRHRPPRLPRPRPRPEVRPRP — within 0.2 log units, -0.00149
- RRIRARPPRLPRPRPRPMPVPRP — within 0.2 log units, 0.0463
- RRIRMRPPRLPRPRPRPARAPRP — higher, 1.43
- RRIRFRPPRLPRPRPRPLGMPRP — within 0.2 log units, -0.0132
- RRIRKRPPRLPRPRPRPPWIPRP — within 0.2 log units, -0.0983
- RRIRQRPPRLPRPRPRPVMIPRP — lower, -0.286
- RRIRSRPPRLPRPRPRPIEGPRP — within 0.2 log units, -0.0107
- RRIRCRPPRLPRPRPRPDIIPRP — within 0.2 log units, -0.132
- RRIRKRPPRLPRPRPRPQKTPRP — within 0.2 log units, 0.167
- RRIRYRPPRLPRPRPRPGFSPRP — within 0.2 log units, -0.0944
- RRIRVRPPRLPRPRPRPDAKPRP — within 0.2 log units, 0.0516
- RRIRKRPPRLPRPRPRPDLMPRP — within 0.2 log units, 0.0729
- RRIRRRPPRLPRPRPRPVTKPRP — higher, 0.28
- RRIRMRPPRLPRPRPRPVIYPRP — within 0.2 log units, -0.0966
- RRIRSRPPRLPRPRPRPDWSPRP — higher, 0.276
- RRIRARPPRLPRPRPRPKWAPRP — higher, 0.688
